According to article PMC2581932 (Cell, 2008):

B1: Pyrococcus furiosus HerA (enzyme, UniProt Q8U1P0 1-551, looked up)
chain: MEEFVGIVRGEASFTSYEFSINPSANVSFGEFVVTKNRDGDLVLGTVRHVKNVNWLLSSVKSNFNSLALDIEEYGESLGENEEVVATVRILGKIEGNELVPNRVPIRNGEYVYKASDDLLQMIYGNDGIEIGTLLLRPNVRIKLDVNELVSRHFAVLAVTGAGKSNAVAVIIKGIVEDVGGTVVVLDPHGDYVNLRLPETGIDLVNIIDGKIRIEDLDPEELADLIGISSSAQIQRHFLSLAWETVKHKNQSLGGESLLEALLDLLNEWISRKTIKYWSEKEGRMKSEDLKSERIETIRGIIFRIRRFLRNYGNIVTSENLVAAIKPGMVNVIDLSPLDENQMKVVVGKFLEAVFEKRVEYEMARKRFEKETSKKKRDEYEEIMTEIESKYPALAYPILVIVEEAHIFAPQGEENDAMRIMGRIAREGRKFGVGLGVVSQRPSKLNEDILSQMNTKIILRIVNPRDQDYVLKASEQLSKDLMDDIAGLGKGEAVIVGQAIKLPALVRIYNFKELRGKAGTGQYGGEDIGILDRWNKMKRNMVNSLDIDIDF
B2: Pyrococcus furiosus NurA (enzyme, UniProt Q8U1N8 1-451, looked up)
chain: MRLLSKQSIERITKILLDELENVRENEQIRNIINSWKPLPSPEKSSIYAVDGSRSVSRLSGTVIYFLSALAVGSGKQLRLSYANAIKSNYGTSDQIVRMQMETLENMLGYLAYRKLEGEKRAILMDGTLTGSLVRPPVYPEDIRSLNVMRALIGESDFENLLNEFLEKLRDHYRKVEEHLEKNGNYDSPILTDNVVEKLRKKYIDTKVIAYGSGKVKVKIPRKALGYSPRVIPIEVLESSRGKSVDELLQELDEEKVELYLGKDDIYDALHMTLSYIEYLYSIDKLLEVKNLAYIAKSFYTKTLARTLGVEIVDTALLDAVIRTLIGHEKEGYLEIEHAVVPPKWSFPDFLLSKFRNIEKLIDKGIHLAYVRFEQGDVIYMLQSTTNIEKILPLILHHKAGGYLRPLQLAHHGVKISYKEARHTLEALINALRNRDPALKIFVKYGRSPLE

Assays:
SEC = target: the molecule itself; experiment: SEC
Pyrococcus furiosus HerA = target: B1; experiment: SEC

Row | Binder | binding result (SEC) | stoichiometry N (Pyrococcus furiosus HerA)
1 | B1 | binds | 
2 | B2 |  | 1 to 3 NurA monomers per HerA hexamer
